# Test results reported in patent publication US20180298070A1, “PEPTIDE COMPOUND” (Takeda Pharmaceutical Company Limited, published 2018).
# Non-standard residues stand in square brackets, D forms with d. No end group written: not given here. NMeY = CN[C@@H](Cc1ccc(O)cc1)C(=O)O; Iva = CC[C@](C)(N)C(=O)O; Aib = CC(C)(N)C(=O)O
# B1: Compound 117 (peptide)
# peptide: [NMeY][Aib]EGTFISDYSIALDR[Aib]HQ[Aib]NFVNW[Iva]LAQRPSSGAPPPSR-NH2
# modifications: N-terminus assumed
# SMILES: CC[C@H](C)[C@H](NC(=O)[C@H](CO)NC(=O)[C@H](Cc1ccc(O)cc1)NC(=O)[C@H](CC(=O)O)NC(=O)[C@H](CO)NC(=O)[C@@H](NC(=O)[C@H](Cc1ccccc1)NC(=O)[C@@H](NC(=O)CNC(=O)[C@H](CCC(=O)O)NC(=O)C(C)(C)NC(=O)[C@H](Cc1ccc(O)cc1)NC)[C@@H](C)O)[C@@H](C)CC)C(=O)N[C@@H](C)C(=O)N[C@@H](CC(C)C)C(=O)N[C@@H](CC(=O)O)C(=O)N[C@@H](CCCNC(=N)N)C(=O)NC(C)(C)C(=O)N[C@@H](Cc1c[nH]cn1)C(=O)N[C@@H](CCC(N)=O)C(=O)NC(C)(C)C(=O)N[C@@H](CC(N)=O)C(=O)N[C@@H](Cc1ccccc1)C(=O)N[C@H](C(=O)N[C@@H](CC(N)=O)C(=O)N[C@@H](Cc1c[nH]c2ccccc12)C(=O)N[C@@](C)(CC)C(=O)N[C@@H](CC(C)C)C(=O)N[C@@H](C)C(=O)N[C@@H](CCC(N)=O)C(=O)N[C@@H](CCCNC(=N)N)C(=O)N1CCC[C@H]1C(=O)N[C@@H](CO)C(=O)N[C@@H](CO)C(=O)NCC(=O)N[C@@H](C)C(=O)N1CCC[C@H]1C(=O)N1CCC[C@H]1C(=O)N1CCC[C@H]1C(=O)N[C@@H](CO)C(=O)N[C@@H](CCCNC(=N)N)C(N)=O)C(C)C
# B2: Compound 8 (peptide)
# peptide: Y[Aib]EGTVKSDYSI[Aib]LDKQAQ[Aib]EFVKWLLKGGPSSGAPPPSK-NH2
# modifications: N-terminus assumed
# SMILES: CC[C@H](C)[C@H](NC(=O)[C@H](CO)NC(=O)[C@H](Cc1ccc(O)cc1)NC(=O)[C@H](CC(=O)O)NC(=O)[C@H](CO)NC(=O)[C@H](CCCCN)NC(=O)[C@@H](NC(=O)[C@@H](NC(=O)CNC(=O)[C@H](CCC(=O)O)NC(=O)C(C)(C)NC(=O)[C@@H](N)Cc1ccc(O)cc1)[C@@H](C)O)C(C)C)C(=O)NC(C)(C)C(=O)N[C@@H](CC(C)C)C(=O)N[C@@H](CC(=O)O)C(=O)N[C@@H](CCCCN)C(=O)N[C@@H](CCC(N)=O)C(=O)N[C@@H](C)C(=O)N[C@@H](CCC(N)=O)C(=O)NC(C)(C)C(=O)N[C@@H](CCC(=O)O)C(=O)N[C@@H](Cc1ccccc1)C(=O)N[C@H](C(=O)N[C@@H](CCCCN)C(=O)N[C@@H](Cc1c[nH]c2ccccc12)C(=O)N[C@@H](CC(C)C)C(=O)N[C@@H](CC(C)C)C(=O)N[C@@H](CCCCN)C(=O)NCC(=O)NCC(=O)N1CCC[C@H]1C(=O)N[C@@H](CO)C(=O)N[C@@H](CO)C(=O)NCC(=O)N[C@@H](C)C(=O)N1CCC[C@H]1C(=O)N1CCC[C@H]1C(=O)N1CCC[C@H]1C(=O)N[C@@H](CO)C(=O)N[C@@H](CCCCN)C(N)=O)C(C)C
# B3: Compound 113 (peptide)
# peptide: YXEGTXISDYSIXLDRXAQXNFVNWXLAQRPSSGAPPPSR
# modifications: N-methyl on Tyr 1 (Me-Tyr); Aib at 2, 13, 17, 20; Iva at 6, 26; C-terminal amide (NH2)
# B4: Compound 10 (peptide)
# peptide: Y[Aib]EGTVKSDYSILLDKQAQ[Aib]EFVKWLLKGGPSSGAPPPSK-NH2
# modifications: N-terminus assumed
# SMILES: CC[C@H](C)[C@H](NC(=O)[C@H](CO)NC(=O)[C@H](Cc1ccc(O)cc1)NC(=O)[C@H](CC(=O)O)NC(=O)[C@H](CO)NC(=O)[C@H](CCCCN)NC(=O)[C@@H](NC(=O)[C@@H](NC(=O)CNC(=O)[C@H](CCC(=O)O)NC(=O)C(C)(C)NC(=O)[C@@H](N)Cc1ccc(O)cc1)[C@@H](C)O)C(C)C)C(=O)N[C@@H](CC(C)C)C(=O)N[C@@H](CC(C)C)C(=O)N[C@@H](CC(=O)O)C(=O)N[C@@H](CCCCN)C(=O)N[C@@H](CCC(N)=O)C(=O)N[C@@H](C)C(=O)N[C@@H](CCC(N)=O)C(=O)NC(C)(C)C(=O)N[C@@H](CCC(=O)O)C(=O)N[C@@H](Cc1ccccc1)C(=O)N[C@H](C(=O)N[C@@H](CCCCN)C(=O)N[C@@H](Cc1c[nH]c2ccccc12)C(=O)N[C@@H](CC(C)C)C(=O)N[C@@H](CC(C)C)C(=O)N[C@@H](CCCCN)C(=O)NCC(=O)NCC(=O)N1CCC[C@H]1C(=O)N[C@@H](CO)C(=O)N[C@@H](CO)C(=O)NCC(=O)N[C@@H](C)C(=O)N1CCC[C@H]1C(=O)N1CCC[C@H]1C(=O)N1CCC[C@H]1C(=O)N[C@@H](CO)C(=O)N[C@@H](CCCCN)C(N)=O)C(C)C
# B5: Compound 7 (peptide)
# peptide: Y[Aib]EGTVVSFYSI[Aib]LDKQAQ[Aib]EFVKWLLKGGPSSGAPPPSK-NH2
# modifications: N-terminus assumed
# SMILES: CC[C@H](C)[C@H](NC(=O)[C@H](CO)NC(=O)[C@H](Cc1ccc(O)cc1)NC(=O)[C@H](Cc1ccccc1)NC(=O)[C@H](CO)NC(=O)[C@@H](NC(=O)[C@@H](NC(=O)[C@@H](NC(=O)CNC(=O)[C@H](CCC(=O)O)NC(=O)C(C)(C)NC(=O)[C@@H](N)Cc1ccc(O)cc1)[C@@H](C)O)C(C)C)C(C)C)C(=O)NC(C)(C)C(=O)N[C@@H](CC(C)C)C(=O)N[C@@H](CC(=O)O)C(=O)N[C@@H](CCCCN)C(=O)N[C@@H](CCC(N)=O)C(=O)N[C@@H](C)C(=O)N[C@@H](CCC(N)=O)C(=O)NC(C)(C)C(=O)N[C@@H](CCC(=O)O)C(=O)N[C@@H](Cc1ccccc1)C(=O)N[C@H](C(=O)N[C@@H](CCCCN)C(=O)N[C@@H](Cc1c[nH]c2ccccc12)C(=O)N[C@@H](CC(C)C)C(=O)N[C@@H](CC(C)C)C(=O)N[C@@H](CCCCN)C(=O)NCC(=O)NCC(=O)N1CCC[C@H]1C(=O)N[C@@H](CO)C(=O)N[C@@H](CO)C(=O)NCC(=O)N[C@@H](C)C(=O)N1CCC[C@H]1C(=O)N1CCC[C@H]1C(=O)N1CCC[C@H]1C(=O)N[C@@H](CO)C(=O)N[C@@H](CCCCN)C(N)=O)C(C)C
# B6: Compound 42 (peptide)
# peptide: Y[Aib]EGTVVSLYSI[Aib]LDKQAQ[Aib]EFVKW[Aib]LKGGPSSGAPPPSK-NH2
# modifications: N-terminus assumed
# SMILES: CC[C@H](C)[C@H](NC(=O)[C@H](CO)NC(=O)[C@H](Cc1ccc(O)cc1)NC(=O)[C@H](CC(C)C)NC(=O)[C@H](CO)NC(=O)[C@@H](NC(=O)[C@@H](NC(=O)[C@@H](NC(=O)CNC(=O)[C@H](CCC(=O)O)NC(=O)C(C)(C)NC(=O)[C@@H](N)Cc1ccc(O)cc1)[C@@H](C)O)C(C)C)C(C)C)C(=O)NC(C)(C)C(=O)N[C@@H](CC(C)C)C(=O)N[C@@H](CC(=O)O)C(=O)N[C@@H](CCCCN)C(=O)N[C@@H](CCC(N)=O)C(=O)N[C@@H](C)C(=O)N[C@@H](CCC(N)=O)C(=O)NC(C)(C)C(=O)N[C@@H](CCC(=O)O)C(=O)N[C@@H](Cc1ccccc1)C(=O)N[C@H](C(=O)N[C@@H](CCCCN)C(=O)N[C@@H](Cc1c[nH]c2ccccc12)C(=O)NC(C)(C)C(=O)N[C@@H](CC(C)C)C(=O)N[C@@H](CCCCN)C(=O)NCC(=O)NCC(=O)N1CCC[C@H]1C(=O)N[C@@H](CO)C(=O)N[C@@H](CO)C(=O)NCC(=O)N[C@@H](C)C(=O)N1CCC[C@H]1C(=O)N1CCC[C@H]1C(=O)N1CCC[C@H]1C(=O)N[C@@H](CO)C(=O)N[C@@H](CCCCN)C(N)=O)C(C)C
# B7: Compound 6 (peptide)
# peptide: Y[Aib]EGTVVSLYSI[Aib]LDKQAQ[Aib]EFVKWLLKGGPSSGAPPPSK-NH2
# modifications: N-terminus assumed
# SMILES: CC[C@H](C)[C@H](NC(=O)[C@H](CO)NC(=O)[C@H](Cc1ccc(O)cc1)NC(=O)[C@H](CC(C)C)NC(=O)[C@H](CO)NC(=O)[C@@H](NC(=O)[C@@H](NC(=O)[C@@H](NC(=O)CNC(=O)[C@H](CCC(=O)O)NC(=O)C(C)(C)NC(=O)[C@@H](N)Cc1ccc(O)cc1)[C@@H](C)O)C(C)C)C(C)C)C(=O)NC(C)(C)C(=O)N[C@@H](CC(C)C)C(=O)N[C@@H](CC(=O)O)C(=O)N[C@@H](CCCCN)C(=O)N[C@@H](CCC(N)=O)C(=O)N[C@@H](C)C(=O)N[C@@H](CCC(N)=O)C(=O)NC(C)(C)C(=O)N[C@@H](CCC(=O)O)C(=O)N[C@@H](Cc1ccccc1)C(=O)N[C@H](C(=O)N[C@@H](CCCCN)C(=O)N[C@@H](Cc1c[nH]c2ccccc12)C(=O)N[C@@H](CC(C)C)C(=O)N[C@@H](CC(C)C)C(=O)N[C@@H](CCCCN)C(=O)NCC(=O)NCC(=O)N1CCC[C@H]1C(=O)N[C@@H](CO)C(=O)N[C@@H](CO)C(=O)NCC(=O)N[C@@H](C)C(=O)N1CCC[C@H]1C(=O)N1CCC[C@H]1C(=O)N1CCC[C@H]1C(=O)N[C@@H](CO)C(=O)N[C@@H](CCCCN)C(N)=O)C(C)C
# B8: Compound 59 (peptide)
# peptide: [NMeY][Aib]EGTFISDYSIALDRIAQQDFVNWLLAQRPSSGAPPPSR-NH2
# modifications: N-terminus assumed
# SMILES: CC[C@H](C)[C@H](NC(=O)[C@H](CCCNC(=N)N)NC(=O)[C@H](CC(=O)O)NC(=O)[C@H](CC(C)C)NC(=O)[C@H](C)NC(=O)[C@@H](NC(=O)[C@H](CO)NC(=O)[C@H](Cc1ccc(O)cc1)NC(=O)[C@H](CC(=O)O)NC(=O)[C@H](CO)NC(=O)[C@@H](NC(=O)[C@H](Cc1ccccc1)NC(=O)[C@@H](NC(=O)CNC(=O)[C@H](CCC(=O)O)NC(=O)C(C)(C)NC(=O)[C@H](Cc1ccc(O)cc1)NC)[C@@H](C)O)[C@@H](C)CC)[C@@H](C)CC)C(=O)N[C@@H](C)C(=O)N[C@@H](CCC(N)=O)C(=O)N[C@@H](CCC(N)=O)C(=O)N[C@@H](CC(=O)O)C(=O)N[C@@H](Cc1ccccc1)C(=O)N[C@H](C(=O)N[C@@H](CC(N)=O)C(=O)N[C@@H](Cc1c[nH]c2ccccc12)C(=O)N[C@@H](CC(C)C)C(=O)N[C@@H](CC(C)C)C(=O)N[C@@H](C)C(=O)N[C@@H](CCC(N)=O)C(=O)N[C@@H](CCCNC(=N)N)C(=O)N1CCC[C@H]1C(=O)N[C@@H](CO)C(=O)N[C@@H](CO)C(=O)NCC(=O)N[C@@H](C)C(=O)N1CCC[C@H]1C(=O)N1CCC[C@H]1C(=O)N1CCC[C@H]1C(=O)N[C@@H](CO)C(=O)N[C@@H](CCCNC(=N)N)C(N)=O)C(C)C
# Molecular target: human GLP-1R (human, UniProt P43220)
# Experiment: cell-based or functional assay
row,Binder,"Agonist activity (EC50, M)"
1,B1,> 1e-06 M
2,B2,> 1e-06 M
3,"YXEGTXISDYSIALDRXAQXNFVNWLLAQRPSSGAPPPSR (N-methyl on Tyr 1 (Me-Tyr); Aib at 2, 17, 20; Iva at 6; C-terminal amide (NH2)) [Compound 104]",> 1e-06 M
4,B3,> 1e-06 M
5,B4,> 1e-06 M
6,B5,> 1e-06 M
7,B6,> 1e-06 M
8,B7,> 1e-06 M
9,B8,> 1e-06 M
